Assays:
[1] = test system: S. pombe Translin (Schizosaccharomyces pombe); assay: EMSA
[2] = target: recombinant S.pombe Translin (S. pombe); assay: glycerol gradient centrifugation
human Translin = human Translin (Homo sapiens, UniProt Q15631 1-228); assay: EMSA
human Translin, sequence (Q15631 whole entry): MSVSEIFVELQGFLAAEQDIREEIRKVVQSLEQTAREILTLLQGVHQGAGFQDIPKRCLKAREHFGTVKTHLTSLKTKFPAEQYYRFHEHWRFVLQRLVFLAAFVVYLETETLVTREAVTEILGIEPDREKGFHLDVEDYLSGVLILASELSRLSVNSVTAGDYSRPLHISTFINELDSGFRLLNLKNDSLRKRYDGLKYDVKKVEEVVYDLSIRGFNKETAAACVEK

Molecule | Kd [1] | other results
GTGTGTGTGTGTGTGTGTGTGTGTGTGTGT [d(GT)15] | 18 nM | –
GUGUGUGUGUGUGUGUGUGUGUGUGUGUGU [(GU)15] | 3 nM | –
recombinant S.pombe Translin (natural protein) | – | stoichiometry N [2]: 8
GTGTGTGTGTGTGTGTGTGTGTGTGTGTGT (ssDNA) [d(GT)15] | – | binding signal (human Translin): ~2 Kd relative to (GU)15

Reference: paper PMC1180670
